Square brackets hold non-standard residues; d marks the D form. Ends that are not written are not given here.

The target in experiment [1] is amyloid β (Aβ) plaques (UniProt P05067). The experiment is described as follows: in vivo labelling of Aβ plaques after i.v. injection into APPswe/PS1ΔE9 AD mice, injected dose 8X (0.55 µmol/Kg).
Experiment [2] shares this target. The experiment is described as follows: in vivo labelling of Aβ plaques after i.v. injection into APPswe/PS1ΔE9 AD mice, injected dose 2X (0.137 µmol/Kg).
The target is the same in experiment [3]. The experiment is described as follows: in vivo labelling of Aβ plaques after i.v. injection into APPswe/PS1ΔE9 AD mice, injected dose 4X (0.274 µmol/Kg).
The target is the same in experiment [4]. The experiment is described as follows: in vivo labelling of Aβ plaques after i.v. injection into APPswe/PS1ΔE9 AD mice, injected dose 6X (0.411 µmol/Kg).
Experiment [5] has the same target. The experiment is described as follows: in vivo labelling of Aβ plaques after i.v. injection of rhodamine-labelled conjugate into APPswe/PS1ΔE9 AD mice, dose 8X; fluorescence microscopy of brain sections.

Chain of amyloid β (Aβ) plaques (P05067 672-713): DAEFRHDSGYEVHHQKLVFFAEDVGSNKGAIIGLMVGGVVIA

B1: PMLA/LLL/D3/rhodamine (peptide)
peptide 1: [dR][dP][dR][dT][dR][dL][dH][dT][dH][dR][dN][dR]C
peptide 2: Leu-Leu-Leu
modifications: not fully specified (some residues, N-terminus); also: PMLA scaffold carrying LLL (amide-linked to pendant carboxylates), D3 peptide and rhodamine, D3 Cys thioether to maleimide-PEG3400 on PMLA
For B1, the Percentage of total plaques labeled by the reagents is 21.1% in experiment [1]; 0% in experiment [2]; 0% in experiment [3]; 0% in experiment [4]; 21.1% in experiment [5].

Source of the values: patent US20200206304A1, “METHODS AND COMPOSITIONS FOR EFFICIENT DELIVERY THROUGH MULTIPLE BIO BARRIERS” (Cedars-Sinai Medical Center, priority 2017, published 2020).
